Consider four molecules from paper PMC5322571, “Selection of DNA Aptamers for Ovarian Cancer Biomarker CA125 Using One-Pot SELEX and High-Throughput Sequencing”.

Common to all, as to details: protein: commercial; label: 5' TEX615 (Texas Red) for FA; FAM for APCE; single strand
Data set [1] addresses T1, CA125 (Cancer Antigen 125, mucin glycoprotein) (human, UniProt Q8WXI7 1-14451). Nature of the data set: fluorescence anisotropy; FA: 100 nM aptamer heat cycled in TGKM (25 mM Tris, 192 mM glycine, 5 mM KH2PO4, 1 mM MgCl2, pH 8.3), CA125 0-2000 U/mL in PBS, 0.13 mg/mL BSA, 90 min RT, read.
Data set [2] concerns the target T1, CA125 (Cancer Antigen 125, mucin …). Nature of the data set: fluorescence anisotropy; heat cycled in PBS without Mg2+; FA: 100 nM aptamer heat cycled in TGKM (25 mM Tris, 192 mM glycine, 5 mM KH2PO4, 1 mM MgCl2, pH 8.3), CA125 0-2000 U/mL in PBS, 0.13 mg/mL BSA, 90 min RT, read.
For data set [3] the target is unchanged. Nature of the data set: affinity probe capillary electrophoresis; heat cycled in TE without Mg2+; TGK run buffer; FA: 100 nM aptamer heat cycled in TGKM (25 mM Tris, 192 mM glycine, 5 mM KH2PO4, 1 mM MgCl2, pH 8.3), CA125 0-2000 U/mL in PBS, 0.13 mg/mL BSA, 90 min RT, read.
For data set [4] the target is unchanged. Nature of the data set: affinity probe capillary electrophoresis; TGKM (1 mM Mg2+); FA: 100 nM aptamer heat cycled in TGKM (25 mM Tris, 192 mM glycine, 5 mM KH2PO4, 1 mM MgCl2, pH 8.3), CA125 0-2000 U/mL in PBS, 0.13 mg/mL BSA, 90 min RT, read.
For data set [5] the target is unchanged. Nature of the data set: fluorescence anisotropy; heat cycled with Mg2+ (5 mM in Results; TGKM is 1 mM in Methods); FA: 100 nM aptamer heat cycled in TGKM (25 mM Tris, 192 mM glycine, 5 mM KH2PO4, 1 mM MgCl2, pH 8.3), CA125 0-2000 U/mL in PBS, 0.13 mg/mL BSA, 90 min RT, read.

Turning to CACTCTTTCATTTTATTTATAATTAT (ssDNA) [CA125_2 (without primer regions)], the binding result in data set [1] was “no binding”.

TGCCTTATTACTCTCTCCTGTTAAC (ssDNA) [CA125_12 (CA125_12_NP, without primer regions)]: the values for the Kd in data set [2] and in data set [3] were 118 ± 123 U/mL and 131 ± 93 U/mL, respectively.

In the case of ACTAGCTCCGATCTTTCTTATCTAC (ssDNA) [CA125_1 (CA125_1_NP, without primer regions)], the Kd in data set [4] came out at 80 ± 38 U/mL; in data set [5] it was 207 ± 109 U/mL.

On to TTCAATATTACTTATCTTTTTTTTT (ssDNA) [CA125_3 (without primer regions)], for which the binding result in data set [1] was “no binding”.
